Patent US20220289791A1, “LACTATE DEHYDROGENASE INHIBITOR POLYPEPTIDES FOR USE IN THE TREATMENT OF CANCER” (UNIVERSITÉ CATHOLIQUE DE LOUVAIN, priority 2019, published 2022)
*1 amine or outer side, *2 acyl side, *3 side chain or, on linkers, in order; H or OH if unused. Where a SMILES comes first, the peptide text is derived from it. Bridges are numbered along the chain shown (N, C = ends). Where no end group is shown, it is not given here. [ ]: non-standard residue; d: D form. α,α'‑bisbromoxylene = α,α'-bisbromoxylene, a linker that cyclises the cysteines (bisbromoxylene cysteine cyclisation); C6F4(1,4-diyl) = Fc1c(F)c([*:2])c(F)c(F)c1[*:1]; mXylylene = c1cc(C[*:1])cc(C[*:2])c1; oXylylene = c1ccc(C[*:2])c(C[*:1])c1; pXylylene = c1cc(C[*:2])ccc1C[*:1]; Ala(cPr) = N[C@@H](CC1CC1)C(=O)O; tBuAla = CC(C)(C)C[C@H](N)C(=O)O; Aib = CC(C)(N)C(=O)O

What follows are compounds tested against T1, LDHBtr (Homo sapiens, UniProt P07195) (assay: NMR WaterLOGSY binding screening). Conditions: not given.
T1 sequence (P07195 21-334): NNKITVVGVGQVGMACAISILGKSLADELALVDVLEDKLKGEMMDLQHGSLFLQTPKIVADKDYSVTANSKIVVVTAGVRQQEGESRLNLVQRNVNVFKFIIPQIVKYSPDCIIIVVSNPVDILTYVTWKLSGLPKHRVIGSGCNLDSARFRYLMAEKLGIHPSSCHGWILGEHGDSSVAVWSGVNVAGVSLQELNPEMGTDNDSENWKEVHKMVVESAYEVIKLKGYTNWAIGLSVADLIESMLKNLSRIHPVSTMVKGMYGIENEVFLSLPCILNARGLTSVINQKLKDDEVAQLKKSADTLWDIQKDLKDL
Method: All experiments were acquired on a Bruker Ascend Avance III 600 MHz equipped with a broadband cryoprobe (Bruker® GmBH, Germany)
NMR WaterLOGSY was performed on samples prepared in 10% D2O buffer containing 50 mM sodium phosphate buffer, pH 7.6 and 100 mM NaCl. The concentration of LDH subunits was 15-20 μM. Ligand binding was detected using a NMR WaterLOGSY ephogsygpno.2 advance-version sequence with a […]. Water signal suppression was achieved using excitation sculpting scheme and a 50 ms spinlock was used to suppress protein background signal. For each experiment, 512 scans were collected to yield a 16K points FID. NMR WaterLOGSY intensity was corrected by plotting the intensity difference of the ligand NMR WaterLOGSY spectra recorded in the presence and absence of protein.
For NMR WaterLOGSY screening experiments a correction factor was applied to account for slight concentration variation between samples. To do so, 8 scans 1H NMR spectra with 50 ms spinlock were recorded before NMR WaterLOGSY experiments. The intensity ratio of the aliphatic region (0.700 ppm to 0.955 ppm) with and without protein was used as a correction factor to compare the NMR WaterLOGSY intensity of the polypeptides of interest with and without LDH subunits. An arbitrary threshold of 0.1, corresponding to a 10% decrease in the NMR WaterLOGSY signal intensity between the spectra with and without protein, was set to discriminate between binders and non-binders.
CC[C@H](C)[C@H](NC(=O)[C@H](CC(C)C)NC(=O)[C@H](CCCCN)NC(=O)[C@H](CCC(=O)O)NC(=O)[C@H](CCCCN)NC(=O)[C@H](CC(C)C)NC(=O)[C@@H](NC(=O)[C@H](C)N)[C@@H](C)O)C(=O)N[C@@H](C)C(=O)N1CCC[C@H]1C(=O)N[C@H](C(=O)N[C@@H](C)C(=O)N[C@@H](CCC(=O)O)C(N)=O)C(C)C [LB13, ATLKEKLIAPVAE] (H-ATLKEKLIAPVAE-NH2; N-terminus assumed) was tested, and the “NMR WaterLOGSY signal / saturation transfer” value was “exact same NMR WaterLOGSY spectrum than LB19”.

Same assay, conditions: cyclic peptides at 800 μM
“ACLKECLI [VS-142-BisAlk, cyclic peptide, cysteines alkylated using α,α′ bisbromoxylene]” was tested, and the “Binding using WaterLOGSY (800 μM)” value was “+ (binders)”.
In the case of “ACTLKCKLI (linker 2-6 via α,α'‑bisbromoxylene (inferred)) [LT021, cyclic peptide, cysteines alkylated using α,α′ bisbromoxylene]”, the “Binding using WaterLOGSY (800 μM)” value is reported as “+ (binders)”.

Same assay, conditions: linear peptides at 800 μM, LDHBtr 15 μM
In the case of CC[C@H](C)[C@H](NC(=O)[C@H](CC(C)C)NC(=O)[C@H](CCCCN)NC(=O)[C@H](CCC(=O)O)NC(=O)[C@H](CCCCN)NC(=O)[C@H](CC(C)C)NC(=O)[C@@H](NC(=O)[C@H](C)N)[C@@H](C)O)C(=O)N[C@@H](C)C(=O)N1CCC[C@H]1C(=O)N[C@H](C(=O)N[C@@H](C)C(=O)N[C@@H](CCC(=O)O)C(N)=O)C(C)C [LB13, ATLKEKLIAPVAE] (H-ATLKEKLIAPVAE-NH2; N-terminus assumed), the “Binding using WaterLOGSY (800 μM)” value is reported as “+ (binders)”.
With “AALKEKLI [LB8-A1, LB8 structural analogue]” the “Binding using WaterLOGSY (800 μM)” value was “− (non-binders)”.
In the case of “ATAKEKLI (LB8-A2) [LB8 structural analogue]”, the “Binding using WaterLOGSY (800 μM)” value is reported as “+ (binders)”.
“ATL(Aib)E(Aib)LI (ATL[Aib]E[Aib]LI; not fully specified (C-terminus)) [LB8-Aib3, LB8 structural analogue]” was tested, and the “Binding using WaterLOGSY (800 μM)” value was “+ (binders)”.
With “ATL(Aib)EKLI (ATL[Aib]EKLI; not fully specified (C-terminus)) [LB8-Aib1, LB8 structural analogue]” the “Binding using WaterLOGSY (800 μM)” value was “+ (binders)”.
In the case of “ATLAEALI (LB8-A3-A5) [LB8 structural analogue]”, the “Binding using WaterLOGSY (800 μM)” value is reported as “+ (binders)”.
With “ATLAEKLI (LB8-A3) [LB8 structural analogue]” the “Binding using WaterLOGSY (800 μM)” value was “+ (binders)”.
For “ATLKAKLI (LB8-A4) [LB8 structural analogue]”, the “Binding using WaterLOGSY (800 μM)” value was “+ (binders)”.
With ATLKDQLI [LA8, linear polypeptide] the “Binding using WaterLOGSY (800 μM)” value was “+ (binders)”.
In the case of “ATLKDQLIYNLLKEEQTPQ (LA19) [linear polypeptide]”, the “Binding using WaterLOGSY (800 μM)” value is reported as “+ (binders)”.
“ATLKE(Aib)LI (ATLKE[Aib]LI; not fully specified (C-terminus)) [LB8-Aib2, LB8 structural analogue]” was tested, and the “Binding using WaterLOGSY (800 μM)” value was “+ (binders)”.
For “ATLKEALI (LB8-A5) [LB8 structural analogue]”, the “Binding using WaterLOGSY (800 μM)” value was “+ (binders)”.
With “ATLKEKL (LB8-AL7) [LB8 structural analogue]” the “Binding using WaterLOGSY (800 μM)” value was “− (non-binders)”.
With “ATLKEKLA (LB8-A7) [LB8 structural analogue]” the “Binding using WaterLOGSY (800 μM)” value was “+ (binders)”.
“ATLKEKLG (LB8-G8) [LB8 structural analogue]” was tested, and the “Binding using WaterLOGSY (800 μM)” value was “+ (binders)”.
In the case of “Ac-ATLKEKLI [Ac-LB8, LB8 structural analogue]”, the “Binding using WaterLOGSY (800 μM)” value is reported as “+ (binders)”.
With “Ac-TLKEKLI [LB8-AcTI7, LB8 structural analogue]” the “Binding using WaterLOGSY (800 μM)” value was “− (non-binders)”.
With “GTLKEKLI (LB8-G1) [LB8 structural analogue]” the “Binding using WaterLOGSY (800 μM)” value was “+ (binders)”.
“TLKEKLI (LB8-TI7) [LB8-T17, LB8 structural analogue]” was tested, and the “Binding using WaterLOGSY (800 μM)” value was “− (non-binders)”.

Each compound was assayed against truncated LDHB (LDHBtr) (Homo sapiens, UniProt P07195) (assay: Microscale thermophoresis (MST), Example 2, macrocycles against truncated LDHB). Conditions: not given.
Sequence of truncated LDHB (LDHBtr) (P07195 21-334): as above
Format: binding
Method: MST measurements were performed on a Nanotemper Monolith NT.115 instrument (NanoTemper Technologies®) using Red-dye-NHS fluorescent labeling. Each LDH sample, purified to homogeneity, was labeled with the Monolith Red-dye-NHS 2nd generation labeling dye (NanoTemper Technologies®), according to the manufacturer's instructions. Measurements were performed in 50 mM sodium phosphate, pH 7.6, and 100 mM NaCl containing 0.05% Tween-20 in premium-treated capillaries (NanoTemper Technologies®). The final concentrations of either labeled protein in the assay were 100 nM. The ligands (NADH and peptides) were titrated in 1:1 dilutions following manufacturer's recommendations. All binding reactions were incubated for 5 min at room temperature after loading into capillaries. Experiments were performed in triplicates using 40% LED power, medium MST power, Laser On time 20 s and Laser Off time 3 s. Peptides were evaluated for their thermophoretic pattern, and Kd's were extracted from raw data at a 10 to 20 s MST on time according to manufacturer's instructions. Regarding interaction of 7 with LDH5, Kd was extracted from the raw fluorescence. A denaturation test was performed accordingly to manufacturer recommendation and excluded any nonspecific spectral interaction between 7 and the red-dye. All Kd's of interacting macrocycles and peptides were obtained in triplicate and corrected by taking into account the molecular weight of the TFA counter ion.
For CC[C@H](C)[C@H](NC(=O)[C@H](CC(C)C)NC(=O)[C@H](CCCCN)NC(=O)[C@@H]1CSc2c(F)c(F)c(c(F)c2F)SC[C@H](N)C(=O)N[C@@H]([C@@H](C)O)C(=O)N[C@@H](CC(C)(C)C)C(=O)N[C@@H](CCCCN)C(=O)N1)C(N)=O [CT-44, CT(mlL)KCKLI] (H-CT[tBuAla]KCKLI-NH2; linker 1-5 via C6F4(1,4-diyl); N-terminus assumed), the “MST binding to LDHBtr” value was “did not affect the binding properties”.
With CC[C@H](C)[C@H](NC(=O)[C@H](CC1CC1)NC(=O)[C@H](CCCCN)NC(=O)[C@@H]1CSc2c(F)c(F)c(c(F)c2F)SC[C@H](N)C(=O)N[C@@H]([C@@H](C)O)C(=O)N[C@@H](CC(C)C)C(=O)N[C@@H](CCCCN)C(=O)N1)C(N)=O [CT-45, CTLKCK(cpA)I] (H-CTLKCK[Ala(cPr)]I-NH2; linker 1-5 via C6F4(1,4-diyl); N-terminus assumed) the “MST binding to LDHBtr” value was “unaltered Kd value, or even a slightly improved Kd value”.

Same assay, conditions: MST traces at 10 s to 20 s on time
In the case of CC[C@H](C)[C@H](NC(=O)[C@H](CC(C)C)NC(=O)[C@H](CCCCN)NC(=O)[C@H](CCC(=O)O)NC(=O)[C@@H]1CSCc2cccc(c2)CSC[C@H](N)C(=O)N[C@@H](C)C(=O)N[C@@H]([C@@H](C)O)C(=O)N[C@@H](CC(C)C)C(=O)N1)C(N)=O [MP6, CATLCEKLI] (H-CATLCEKLI-NH2; linker 1-5 via mXylylene), the Kd is reported as > 1000 µM.
CC[C@H](C)[C@H](NC(=O)[C@H](CC(C)C)NC(=O)[C@H](CCCCN)NC(=O)[C@@H]1CSCc2ccccc2CSC[C@H](N)C(=O)N[C@@H]([C@@H](C)O)C(=O)N[C@@H](CC(C)C)C(=O)N[C@@H](CCCCN)C(=O)N1)C(N)=O [MP8, CTLKCKLI] (H-CTLKCKLI-NH2; linker 1-5 via oXylylene; N-terminus assumed) gave a Kd of 25 µM.
Work on CC[C@H](C)[C@H](NC(=O)[C@H](CC(C)C)NC(=O)[C@H](CCCCN)NC(=O)[C@@H]1CSCc2ccc(cc2)CSC[C@H](N)C(=O)N[C@@H]([C@@H](C)O)C(=O)N[C@@H](CC(C)C)C(=O)N[C@@H](CCCCN)C(=O)N1)C(N)=O [MP9, CTLKCKLI] (H-CTLKCKLI-NH2; linker 1-5 via pXylylene; N-terminus assumed) yielded a Kd of 113 µM.
CC[C@H](C)[C@H](NC(=O)[C@H](CC(C)C)NC(=O)[C@H](CCCCN)NC(=O)[C@@H]1CC(=O)NCCCC[C@H](NC(C)=O)C(=O)N[C@@H]([C@@H](C)O)C(=O)N[C@@H](CC(C)C)C(=O)N[C@@H](CCCCN)C(=O)N1)C(N)=O [MP10, Ac-KTLKDKLI] (Ac-KTLKDKLI-NH2; lactam 1-5) was tested, and the Kd was 142 µM.
In the case of CC[C@H](C)[C@H](NC(=O)[C@H](CC(C)C)NC(=O)[C@H](CCCCN)NC(=O)[C@@H]1CCC(=O)N[C@@H](C)C(=O)N[C@@H]([C@@H](C)O)C(=O)N[C@@H](CC(C)C)C(=O)N[C@@H](CCCCN)C(=O)N1)C(N)=O [MP11, ATLKEKLI] (ATLKEKLI-NH2; lactam N-5), the Kd is reported as 465 µM.

The compounds below were run against T1, LDHBtr (assay: Microscale thermophoresis (MST), Example 1). Conditions: linear peptides; read-out: Kd using MST experiment.
Format: binding
Method: MST measurements were performed on a Nanotemper Monolith NT.115 instrument (Nanotemper Technologies®, GmbH) using Red-dye-NHS fluorescent labeling. Each LDH (WT or truncated) sample, purified to homogeneity, was labeled with the Monolith RED-NHS 2nd generation labeling dye according to the supplied protocol (Nanotemper Technologies®, GmbH). Measurements were performed in 50 mM Na-Phosphate pH 7.6 and 100 mM NaCl containing 0.05% Tween-20 in premium treated capillaries (Nanotemper Technologies®, GmbH). The final concentrations of either labeled protein in the assay were 100 nM. The ligands (NADH and peptides) were titrated in 1:1 dilutions following manufacturer's recommendations. All binding reactions were incubated 5′ at room temperature after loading into capillaries. Experiments were performed in triplicates using 40% LED power and medium MST power, LaserOn time was 20 sec, Laser Off time 3 sec. Linear octapeptides were evaluated for their thermophoretic pattern.
CC[C@H](C)[C@H](NC(=O)[C@H](C)NC(=O)[C@H](CCCCN)NC(=O)[C@H](CCC(=O)O)NC(=O)[C@H](CCCCN)NC(=O)[C@H](CC(C)C)NC(=O)[C@@H](NC(=O)[C@H](C)N)[C@@H](C)O)C(N)=O [LB8-A6, ATLKEKAI] (H-ATLKEKAI-NH2) was tested, and the Kd was > 10000 µM.
CC[C@H](C)[C@H](NC(=O)[C@H](CC(C)C)NC(=O)[C@H](CCCCN)NC(=O)[C@H](CCC(=O)O)NC(=O)[C@H](CCCCN)NC(=O)CNC(=O)[C@@H](NC(=O)[C@H](C)N)[C@@H](C)O)C(N)=O [LB8-G3, ATGKEKLI] (H-ATGKEKLI-NH2) was tested, and the Kd was > 10000 µM.
